Common to all, as to type: cell-based
The target of one assay is T1, CBP (Homo sapiens, UniProt Q92793).
T1 construct: expressed in transfected cells; host or cells: CV-1 (the same two-hybrid assay)
Kind of assay: Mammalian two-hybrid assay with CBP. The note with it: data not shown. As for the experimental part:
These assays were conducted as described (He et al., 2002). In particular, the recommended procedure for the Mammalian Matchmaker two-hybrid assay kit (Clontech) was modified slightly by changing from a chloramphenicol acetyltransferase reporter to a Luciferase Reporter pFRLuc (Stratagene), which is under the control of five repeats of the upstream activating sequence for the binding of GAL4.

The next assay deals with T2, TIF2(1140C) (Homo sapiens, UniProt Q15596).
T2 construct: the PCR product of TIF2 with the TIF2-1140F and TIF2-1464R primers; expressed in transfected cells; host or cells: CV-1
T2 sequence (Q15596 1140-1464): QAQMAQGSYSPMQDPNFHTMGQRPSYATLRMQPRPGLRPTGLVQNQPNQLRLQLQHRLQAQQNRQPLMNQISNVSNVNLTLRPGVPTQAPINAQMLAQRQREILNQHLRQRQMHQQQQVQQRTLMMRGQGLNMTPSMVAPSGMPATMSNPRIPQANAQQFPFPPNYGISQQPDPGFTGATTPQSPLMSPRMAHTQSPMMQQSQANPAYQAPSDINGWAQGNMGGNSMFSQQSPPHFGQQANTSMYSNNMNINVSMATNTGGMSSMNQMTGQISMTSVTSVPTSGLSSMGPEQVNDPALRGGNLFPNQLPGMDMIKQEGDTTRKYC
Kind of assay: Mammalian two-hybrid assay in CV-1 cells with TIF2(1140C). From the text: (§1) FIG. 2A-2C illustrate the isolation and characterization of the partial clone of the protein that binds to TIF2.4. […] Five clones were obtained but only two (clones I and V) contained a protein that was needed for colony growth in the presence of the pSos/TIF2.4 fusion protein. After initial screening, only clone I (also named 6-6CL1) was selected for further investigation. FIG. 2B and FIG. 2C illustrate the selectivity of 6-6CL1 interactions with TIF2.4 in mammalian two-hybrid assays. Triplicate samples of CV-1 cells in 24-well plates were transiently transfected with the indicated GAL-DBD and VP16-AD plasmids along with the GAL4-regulated reporter, pFRLuc. The relative luciferase activity, normalized for the activity of the internal Renilla control, was determined and plotted as the average±S.D. The much lower activity of GAL/TIF2.4m123 was previously shown not to be due to unequal levels of protein expression (He et al., 2002). Similar results were obtained in three additional experiments. […] Triplicate samples of CV-1 cells in 24-well plates were analyzed as in (B&C) after being transiently transfected with GAL±6-6CL1 constructs and pFRLuc reporter along with VP16 chimeras of SRC-1 (FIG. 2D) or TIF2 (FIG. 2E) segments. Similar results for SRC-1 were obtained in two additional experiments (ND=not determined). […]

For another assay, the system named is TIF2.4m123. Nature of the assay: Mammalian two-hybrid assay in CV-1 cells with TIF2.4m123. The note with it: equal amounts of protein.
Excerpt: as §1

For the next assay, the target named is T3, RAR α (Homo sapiens, UniProt P10276).
T3 construct: plus VP16 fused to the indicated full length receptors; expressed in transfected cells; host or cells: CV-1
T3 sequence (P10276 1-462): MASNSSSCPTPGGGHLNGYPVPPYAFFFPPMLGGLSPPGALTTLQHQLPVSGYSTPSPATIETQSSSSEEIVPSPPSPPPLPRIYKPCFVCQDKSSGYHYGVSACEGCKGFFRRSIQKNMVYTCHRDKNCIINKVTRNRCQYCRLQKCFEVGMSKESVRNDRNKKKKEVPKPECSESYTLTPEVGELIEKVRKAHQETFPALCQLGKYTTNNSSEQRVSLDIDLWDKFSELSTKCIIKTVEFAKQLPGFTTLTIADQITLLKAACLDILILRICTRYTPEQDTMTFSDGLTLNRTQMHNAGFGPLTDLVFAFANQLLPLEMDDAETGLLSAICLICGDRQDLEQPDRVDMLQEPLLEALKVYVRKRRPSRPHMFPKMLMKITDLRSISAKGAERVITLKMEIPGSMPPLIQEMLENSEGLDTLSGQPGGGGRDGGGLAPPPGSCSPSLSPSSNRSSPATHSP
Kind of assay: Mammalian two-hybrid assay with VP16 full length receptor: RARα. The settings on record: 1 μM 9-cis-retinoic acid. As for the experimental part:
(§2) FIG. 6C1-3 illustrate the association of STAMP with assorted steroid/nuclear receptors, including glucocorticoid receptors (GRs), progesterone receptors (PRs), androgen receptors (ARs), estrogen receptors (ER α or β), PPARγ2 receptors, thyroid receptor beta (TR), and retinoid (α) receptors (RAR α or RXR α). Triplicate samples of CV-1 cells were transfected (as described for FIG. 6B) with GAL, or GAL fused to TIF2.4 or STAMP834C, plus VP16 fused to the indicated full length receptors and incubated with the appropriate steroid (1 μM Dex, 20 nM R5020, 1 nM R1881, 0.1 μM triiodothyronine, or 1 μM estradiol, roziglitazone, or 9-cis-retinoic acid). The average relative luciferase activities of 2-3 experiments±S.E.M. were then plotted. FIG. 6C1 illustrates the effects of STAMP association upon GR, PR and AR induced expression. FIG. 6C2 illustrates the effects of STAMP association upon ERα, ERβ and PPARγ2 induced expression. FIG. 6C3 illustrates the effects of STAMP association upon TR, RARα and RXRα induced expression.
(§3) These assays were conducted as described (He et al., 2002). […]

In another assay the target is T4, ERβ (Homo sapiens, UniProt Q92731).
T4 construct: plus VP16 fused to the indicated full length receptors; expressed in transfected cells; host or cells: CV-1
T4 sequence (Q92731 whole entry, species assumed, the tested form may be a part): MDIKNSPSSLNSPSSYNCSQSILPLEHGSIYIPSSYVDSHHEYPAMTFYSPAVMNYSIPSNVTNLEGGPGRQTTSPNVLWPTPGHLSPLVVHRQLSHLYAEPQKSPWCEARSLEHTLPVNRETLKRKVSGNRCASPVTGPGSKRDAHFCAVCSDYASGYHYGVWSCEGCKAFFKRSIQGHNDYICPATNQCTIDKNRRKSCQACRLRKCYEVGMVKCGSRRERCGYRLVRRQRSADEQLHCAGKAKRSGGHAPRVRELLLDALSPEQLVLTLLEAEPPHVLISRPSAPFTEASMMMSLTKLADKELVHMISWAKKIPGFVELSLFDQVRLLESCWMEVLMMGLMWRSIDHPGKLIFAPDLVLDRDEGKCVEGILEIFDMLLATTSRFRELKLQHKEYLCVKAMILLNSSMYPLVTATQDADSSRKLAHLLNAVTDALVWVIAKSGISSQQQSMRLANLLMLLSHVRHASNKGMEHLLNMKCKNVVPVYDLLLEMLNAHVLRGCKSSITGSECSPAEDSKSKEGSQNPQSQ
Kind of assay: Mammalian two-hybrid assay with VP16 full length receptor: ERβ. The settings on record: 1 μM estradiol. As for the experimental part:
as §2, §3

Two molecules from patent US7867500B2, “Cofactor that modulates steroid receptor activities” (The United States of America as represented by the …, priority 2004, dated 2011) can be followed below.

T1 sequence (Q92793 whole entry): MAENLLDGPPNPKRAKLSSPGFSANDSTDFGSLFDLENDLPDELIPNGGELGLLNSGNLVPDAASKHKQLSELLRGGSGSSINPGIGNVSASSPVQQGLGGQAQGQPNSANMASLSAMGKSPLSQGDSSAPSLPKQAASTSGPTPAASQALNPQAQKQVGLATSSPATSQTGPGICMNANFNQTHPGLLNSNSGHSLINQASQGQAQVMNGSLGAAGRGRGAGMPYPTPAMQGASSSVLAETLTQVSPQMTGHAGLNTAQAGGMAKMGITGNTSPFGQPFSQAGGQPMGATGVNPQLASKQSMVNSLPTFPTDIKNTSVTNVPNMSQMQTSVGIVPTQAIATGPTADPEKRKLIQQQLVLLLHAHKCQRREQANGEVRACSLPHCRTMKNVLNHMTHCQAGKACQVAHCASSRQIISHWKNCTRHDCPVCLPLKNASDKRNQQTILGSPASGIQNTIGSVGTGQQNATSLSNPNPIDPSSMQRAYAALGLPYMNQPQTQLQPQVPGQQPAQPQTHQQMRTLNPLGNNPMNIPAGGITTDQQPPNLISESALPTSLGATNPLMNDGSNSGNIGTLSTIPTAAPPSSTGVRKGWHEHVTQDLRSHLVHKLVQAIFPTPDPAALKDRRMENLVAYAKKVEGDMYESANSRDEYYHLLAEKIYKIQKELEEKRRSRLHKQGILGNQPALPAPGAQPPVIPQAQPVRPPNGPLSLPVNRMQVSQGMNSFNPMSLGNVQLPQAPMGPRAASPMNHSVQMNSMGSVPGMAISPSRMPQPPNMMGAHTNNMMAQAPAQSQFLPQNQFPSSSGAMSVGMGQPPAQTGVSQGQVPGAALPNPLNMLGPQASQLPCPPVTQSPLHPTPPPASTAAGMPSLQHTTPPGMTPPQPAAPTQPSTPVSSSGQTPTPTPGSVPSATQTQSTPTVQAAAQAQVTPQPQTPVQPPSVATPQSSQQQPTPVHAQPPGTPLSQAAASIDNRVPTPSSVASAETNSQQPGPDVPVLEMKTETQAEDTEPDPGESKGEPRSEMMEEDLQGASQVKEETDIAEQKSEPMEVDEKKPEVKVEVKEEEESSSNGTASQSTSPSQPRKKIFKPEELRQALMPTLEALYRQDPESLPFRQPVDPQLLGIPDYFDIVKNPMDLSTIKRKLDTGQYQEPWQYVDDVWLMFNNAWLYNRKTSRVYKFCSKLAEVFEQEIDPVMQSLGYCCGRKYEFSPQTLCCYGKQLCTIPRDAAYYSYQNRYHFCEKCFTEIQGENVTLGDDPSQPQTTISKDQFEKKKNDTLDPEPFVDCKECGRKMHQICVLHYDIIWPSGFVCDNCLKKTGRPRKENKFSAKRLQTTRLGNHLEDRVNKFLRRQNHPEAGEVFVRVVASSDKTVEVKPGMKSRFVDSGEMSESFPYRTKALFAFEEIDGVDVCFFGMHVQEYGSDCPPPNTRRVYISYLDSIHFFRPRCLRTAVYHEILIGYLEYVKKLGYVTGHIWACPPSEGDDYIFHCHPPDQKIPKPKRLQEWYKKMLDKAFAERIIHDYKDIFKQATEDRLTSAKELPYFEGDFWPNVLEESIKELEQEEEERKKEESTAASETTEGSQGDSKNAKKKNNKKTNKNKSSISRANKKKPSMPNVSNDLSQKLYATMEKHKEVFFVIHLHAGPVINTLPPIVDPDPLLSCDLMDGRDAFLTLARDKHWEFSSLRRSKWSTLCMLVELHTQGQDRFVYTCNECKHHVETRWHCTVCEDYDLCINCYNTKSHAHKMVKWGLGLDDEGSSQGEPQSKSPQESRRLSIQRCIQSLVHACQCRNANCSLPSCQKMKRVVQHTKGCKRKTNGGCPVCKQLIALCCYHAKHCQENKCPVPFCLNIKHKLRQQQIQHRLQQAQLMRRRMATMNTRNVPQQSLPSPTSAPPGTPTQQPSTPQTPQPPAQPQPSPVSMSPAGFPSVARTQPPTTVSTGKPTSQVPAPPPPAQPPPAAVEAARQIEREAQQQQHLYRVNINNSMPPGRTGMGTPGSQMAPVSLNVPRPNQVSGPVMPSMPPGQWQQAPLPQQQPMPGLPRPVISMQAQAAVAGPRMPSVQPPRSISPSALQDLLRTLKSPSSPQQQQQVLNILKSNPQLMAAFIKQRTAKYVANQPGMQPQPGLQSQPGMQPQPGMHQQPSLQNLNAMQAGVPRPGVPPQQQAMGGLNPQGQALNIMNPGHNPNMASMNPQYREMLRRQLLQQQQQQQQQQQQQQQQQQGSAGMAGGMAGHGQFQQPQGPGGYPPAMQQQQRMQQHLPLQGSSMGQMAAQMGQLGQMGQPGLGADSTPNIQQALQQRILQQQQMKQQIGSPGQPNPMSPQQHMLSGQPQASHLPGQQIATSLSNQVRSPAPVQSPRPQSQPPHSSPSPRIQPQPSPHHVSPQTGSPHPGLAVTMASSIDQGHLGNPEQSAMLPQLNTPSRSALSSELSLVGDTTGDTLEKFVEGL

B1: 6-6CL1: STAMP fragment amino acids 623-834, coactivator interaction domain (CID) (protein)
chain: ENTPKENSMKVREWNNKGGHCCKLETQELEPKFNLMQILQDNGNLSKMQARIAFSAYLQHVQIRLMKDSGGQTFSASWAAKEDEQMELVVRFLKRASNNLQHSLRMVLPSRRLALLERRRILAHQLGDFIIVYNKETEQMAEKKSKKKVEEEEEDGVNMENFQEFIRQASEAELEEVLTFYTQKNKSASVFLGTHSKISKNNNNYSDSGAKG
On to B1, for which, in the assay with CBP, the “association with CBP” value is listed as “negligible association”. Besides, the “interaction with TIF2(1140C)” value in the assay with TIF2(1140C) is “does not interact”. Further, the “interaction with TIF2.4m123” value in the assay on TIF2.4m123 was “did not interact”.

B2: STAMP834C: STAMP fragment amino acids 834-1277, receptor interaction domain (RID) (protein)
chain: GDHPETIMEEVKIKPPKQQQTTEIHSDKLSRFTTSAEKEAKLVYSNSSSGPTATLQKIPNTHLSSVTTSDLSPGPCHHSSLSQIPSAIPSMPHQPTILLNTVSASASPCLHPGAQNIPSPTGLPRCRSGSHTIGPFSSFQSAAHIYSQKLSRPSSAKAGSCYLNKHHSGIAKTQKEGEDASLYSKRYNQSMVTAELQRLAEKQAARQYSPSSHINLLTQQVTNLNLATGIINRSSASAPPTLRPIISPSGPTWSTQSDPQAPENHSSSPGSRSLQTGGFAWEGEVENNVYSQATGVVPQHKYHPTAGSYQLQFALQQLEQQKLQSRQLLDQSRARHQAIFGSQTLPNSNLWTMNNGAGCRISSATASGQKPTTLPQKVVPPPSSCASLVPKPPPNHEQVLRRATSQKASKGSSAEGQLNGLQSSLNPAASVPITSSTDPAHTKI
As to B2, the “interaction with retinoid (α) receptor” value with RAR α is “lack of interaction”. Besides, the “interaction with estrogen receptor β” value with ERβ is “lack of interaction”.
